US20220289841A1 (CHILDREN S HOSPITAL OF PHILADELPHIA, published 2022)

Molecular target: T1, full-length CD22 (UniProt P20273 20-847, limits assumed)
T1 construct: Re-expressed in OCI-Ly10 cells whose endogenous CD22 was deleted by CRISPR; also called CD22 full length (FL); CD22-full length
T1 sequence (looked up): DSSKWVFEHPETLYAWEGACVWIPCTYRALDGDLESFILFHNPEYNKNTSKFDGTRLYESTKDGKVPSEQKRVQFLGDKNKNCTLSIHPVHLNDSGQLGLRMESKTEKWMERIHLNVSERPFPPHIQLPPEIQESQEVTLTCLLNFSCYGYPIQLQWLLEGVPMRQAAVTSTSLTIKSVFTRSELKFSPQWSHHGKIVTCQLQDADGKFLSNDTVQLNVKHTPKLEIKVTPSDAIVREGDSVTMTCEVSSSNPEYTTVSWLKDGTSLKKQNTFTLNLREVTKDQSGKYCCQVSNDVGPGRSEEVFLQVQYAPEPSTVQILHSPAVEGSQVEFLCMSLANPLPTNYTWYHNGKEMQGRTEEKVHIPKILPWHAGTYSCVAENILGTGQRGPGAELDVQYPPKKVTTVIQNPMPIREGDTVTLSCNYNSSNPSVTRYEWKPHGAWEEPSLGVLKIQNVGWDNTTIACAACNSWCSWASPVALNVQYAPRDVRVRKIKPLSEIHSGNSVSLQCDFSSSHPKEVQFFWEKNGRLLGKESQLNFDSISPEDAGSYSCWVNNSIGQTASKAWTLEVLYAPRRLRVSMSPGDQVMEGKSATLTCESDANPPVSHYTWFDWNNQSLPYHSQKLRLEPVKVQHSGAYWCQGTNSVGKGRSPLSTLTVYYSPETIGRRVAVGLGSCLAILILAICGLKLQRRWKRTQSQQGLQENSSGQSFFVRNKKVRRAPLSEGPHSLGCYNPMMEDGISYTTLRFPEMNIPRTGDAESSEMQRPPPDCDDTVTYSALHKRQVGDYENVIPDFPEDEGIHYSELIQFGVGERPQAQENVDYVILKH
Assay: OCI-Ly10 cells with endogenous CD22 deleted by CRISPR, reconstituted with full-length CD22; Western blot (FIG. 5B)
From the text: One top event was the increased skipping of exon 5-6 (Δex5-6) in CD22 in B-ALL. The inventors validated the RNA expression of this event in 18 out of 18 primary B-ALL samples with RT-PCR. And using Nanopore-based long read RNA sequencing, they confirmed the Δex5-6 event exists within a larger translatable transcript in B-ALL cell lines and B-ALL patient-derived xenografts (PDX). BALB/C mice were then immunized against a peptide containing the junction site of exon 4 and 7 to generate hybridomas and obtain a monoclonal antibody (mAb) against CD22 Δex5-6. To validate the specificity of the identified mAb, the inventors used CRISPR to delete endogenous CD22 in OCI-Ly10 cells and reconstituted the cells with either CD22 Δex5-6 or full length CD22. […] The inventors also validated that this mAb specifically binds to endogenously expressed CD22 Δex5-6 in multiple B-ALL cell lines and B-ALL patient-derived xenografts (PDX) by immunoprecipitation and Western blot analysis. In next steps, the inventors plan to develop antibody-drug conjugates and chimeric antigen receptors from our mAb for further therapeutic testing.

binding result: no binding
B1: Clone 11F11 monoclonal antibody against CD22 Δex5-6 (antibody, V domains shown)
VH: RVQLQQPGADLVRPGASVKLSCKASGYTFTSYWMSWVKQRPGQGLEWIGMIDPSDSEAHYNQMFRDKATLTVDNSSSTAYMVLSSLTSEDSAVYYCSNDFDYWGQGTTLTVSS
VL: not shown
notes: Mouse hybridoma antibody, from BALB/C mice immunized with a peptide containing the exon 4/exon 7 junction; No isotype is stated for the clone; also called the mAb; CD22 Δex5-6 antibody
